Test results from patent US20160159927A1.
Each block holds one substance with its values, some of them ahead of it.

What was measured:
[1] = target: PD1 (over-expressed on cells); assay: cell-cell conjugation: dye-labelled A20-PD-L1 and A20-PD1 cells mixed, double-positive events read by flow cytometry (positive control)
[2] = target: VSIG8 (over-expressed on cells; species not stated) (Homo sapiens (Human)) (UniProt P0DPA2); assay: cell-cell conjugation: dye-labelled A20-VISTA and A20-VSIG8 cells mixed, double-positive events read by flow cytometry
[3] = target: VSIG8 (over-expressed on cells; species not stated) (Homo sapiens (Human)) (UniProt P0DPA2); assay: cell-cell conjugation: two differently dye-labelled lots of A20-VSIG8 cells mixed, double-positive events read by flow cytometry (negative control)

Q2 (percent double-positive, conjugated cells) [1]: 28
Substance: PD-L1 (over-expressed on A20 cells) (ligand)

Q2 (percent double-positive, conjugated cells) [2]: 11.4
Substance: VISTA (over-expressed on A20 cells; species not stated) (from UniProt Q9H7M9 33-311) (ligand)

Q2 (percent double-positive, conjugated cells) [3]: 3.92
Substance: VSIG8 (over-expressed on cells; species not stated) (from UniProt P0DPA2 22-414) (receptor)
